Assay results: the supplement of paper PMC10126150
± gives the standard deviation of the averaged measurements.

System: ATP
Test: switch fluorescence ratio, 500 uM ATP over buffer (Cy3 cluster intensity, sum of 5 cycles each) (fold (ratio)); higher = stronger signal-on switching upon ATP binding; sequences stand for … in TCGTCGGCAGCGTCAGATGTGTATAAGAGACAGTTTTTTTTTTTTTTTTTTTTTTTTT…TC
Conditions: aptamer strand: ATP DNA aptamer (quencher-CACCTGGGGGAGTATTGCGGAGGAAGG + anchor), 100 nM annealed; ATP concentration: 500 uM
In short: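 Five buffer/ATP imaging cycles were run on Cy3-labelled switching-strand clusters on a modified Illumina MiSeq flow-cell, with NaOH stripping and re-annealing between cycles. In each cycle, clusters annealed to 100 nM quencher-labelled ATP aptamer were imaged in selection buffer, then after 15 min with 500 uM ATP at 22 °C. Per cluster, the fluorescence ratio is summed target-cycle over summed buffer-cycle Cy3 intensity, averaged per switch-domain sequence. Only clusters within 100-1000 RFU were kept.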
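Further: ATP exposure 15 min at 22 °C before imaging.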

Sequence	switch fluorescence ratio
TTTGGCATTA	1.09 ± 0.1
TTTGGCCCCG	0.9612 ± 0.0093
TTTGGCTCTG	1.03 ± 0.025
TTTGGCTTGT	0.9714 ± 0.0068
TTTGGGAA	1.03 ± 0.015
TTTGGGAAAT	1.07 ± 0.1
TTTGGGAAGC	1.02 ± 0.033
TTTGGGAGCA	0.9882 ± 0.0022
TTTGGGAGGT	0.99 ± 0.063
TTTGGGCAAG	1.06 ± 0.043
TTTGGGCACT	0.996 ± 0.024
TTTGGGCCGA	0.987 ± 0.028
TTTGGGCCTC	0.9842 ± 0.0021
TTTGGGCCTT	1.02 ± 0.034
TTTGGGCGAA	1.002 ± 0.0068
TTTGGGCTTG	1.013 ± 0.0054
TTTGGGGAAA	1.16 ± 0.42
TTTGGGGACA	1.01 ± 0.019
TTTGGGGGTT	1.01 ± 0.039
TTTGGGTAAT	1.21 ± 0.39
TTTGGGTGAG	0.993 ± 0.023
TTTGGGTGAT	1.02 ± 0.022

Sequence	switch fluorescence ratio
TTTGGGTTTT	1.01 ± 0.054
TTTGGTAAAA	1.01 ± 0.037
TTTGGTAAGC	1.02 ± 0.036
TTTGGTACCC	1.01 ± 0.029
TTTGGTCAGA	0.973 ± 0.049
TTTGGTCGGA	1.019 ± 0.0039
TTTGGTCGGT	0.986 ± 0.081
TTTGGTCTTT	1 ± 0.02
TTTGGTGATA	0.943 ± 0.01
TTTGGTGGGG	1.01 ± 0.029
TTTGGTGTGC	1.01 ± 0.022
TTTGGTGTTA	1 ± 0.026
TTTGGTTAGC	1.01 ± 0.02
TTTGGTTAGG	0.985 ± 0.019
TTTGGTTATT	1 ± 0.04
TTTGGTTGCT	0.991 ± 0.028
TTTGGTTTAG	1 ± 0.015
TTTGGTTTTA	1.004 ± 0.0077
TTTGTAAAGT	0.976 ± 0.019
TTTGTAAGGC	1.08 ± 0.13
TTTGTAGGCG	0.983 ± 0.13
TTTGTATAAC	1.01 ± 0.012

Sequence	switch fluorescence ratio
TTTGTATTCC	0.991 ± 0.1
TTTGTCAAAA	1 ± 0.025
TTTGTCAGTT	0.956 ± 0.043
TTTGTCATGT	0.976 ± 0.036
TTTGTCCGGT	0.971 ± 0.018
TTTGTGCAGG	1.04 ± 0.046
TTTGTGCCGG	1.012 ± 0.007
TTTGTGGAGC	1.04 ± 0.071
TTTGTGGAGG	0.999 ± 0.023
TTTGTGGGAC	1.11 ± 0.066
TTTGTGGGGA	1 ± 0.026
TTTGTGGGTT	0.997 ± 0.025
TTTGTGTAGT	0.986 ± 0.065
TTTGTGTCAC	0.984 ± 0.034
TTTGTGTCTT	0.967 ± 0.024
TTTGTGTGGC	0.99 ± 0.084
TTTGTTAAGG	1.01 ± 0.019
TTTGTTAAGT	1.01 ± 0.05
TTTGTTAATT	0.996 ± 0.039
TTTGTTAGC	1.03 ± 0.019
TTTGTTATGC	1.03 ± 0.032
TTTGTTGAC	0.998 ± 0.024

Sequence	switch fluorescence ratio
TTTGTTGGAA	0.99 ± 0.025
TTTGTTGGCT	0.972 ± 0.058
TTTGTTGGGG	1.02 ± 0.011
TTTGTTGTAT	1 ± 0.032
TTTGTTGTTA	0.994 ± 0.031
TTTGTTTACT	0.99165 ± 0.00046
TTTGTTTCAA	0.982 ± 0.013
TTTGTTTCAT	1.04 ± 0.1
TTTGTTTCGT	1.03 ± 0.11
TTTGTTTGGG	0.998 ± 0.033
TTTGTTTTCG	1.02 ± 0.041
TTTGTTTTGC	0.971 ± 0.019
TTTGTTTTGG	1.03 ± 0.025
TTTTAAAAGG	0.99 ± 0.037
TTTTAAACCG	1.05 ± 0.17
TTTTAAACTT	1.09 ± 0.15
TTTTAACCTG	1.01 ± 0.046
TTTTAACGGG	0.998 ± 0.027
TTTTAACTTC	1 ± 0.014
